B1: glmS ribozyme (parent)
chain: AUAAAAGCGCCAGAACUACAGAAAUGUAGUUGACGAGGAGGAGGUUUAUCGAAUUUUCGGCGGAUGCCUCCAAA

The record followed here is the supplement of paper PMC7125110.

± gives the standard error. Variants at the floor of the assay were thinned out.

The variants in the first data set derive from B1. As to the kind of experiment: self-cleavage kobs at 2500 uM GlcN6P; higher = faster cleavage; RNA array. Particulars: with glucosamine-6-phosphate. In outline:
(§1)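 Barcoded ribozyme variants on sequenced MiSeq chips were transcribed in situ by E. coli RNA polymerase and followed at 37 °C through a hybridised Cy3 probe. Glucosamine-6-phosphate at 40 μM to 10 mM in HEPES/KCl/Mg(OAc)2 buffer was flowed in, and tiles were imaged over ~14 h. Signals were normalised to baseline and to non-cleaving reference variants, and per-tile medians were fit to one- or two-exponential decays to give kobs. Weighted Michaelis–Menten fits across concentrations gave kcat and KM.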
Take AUAAAAUCGCCAGAACUACAGAAAUGUAGUUCACGAGGAUGAGGGUUAUCGAAUUUUCGGCGGAUGCCUCCAAA [G7U G32C G40U U45G]: the “self-cleavage kobs at 2500 uM GlcN6P” value was under 1e-05 s⁻¹.

As to AUAAAAGCGCCAGAACUACAGAAAUGUAGUAGACGAGUAGGAGGUUUAUCAAAUUUUCGGCGGAUGCCUCCAAA [U31A G38U G51A], the “self-cleavage kobs at 2500 uM GlcN6P” value was under 1e-05 s⁻¹.

Take AUAAAAGCGCCAGUACUACAGAAAUGUAUUUGACGAGGAGGAGGUUUAUGGAAUUUUCGGCGGAUGCUUCCAAA [A14U G29U C50G C68U]: the “self-cleavage kobs at 2500 uM GlcN6P” value stood at 0.000156 ± 3.8e-05 s⁻¹.

As for AUAAAAGCGCCAGAACUACAGAAAUGUAGUUGACGAGCAGUAGGUUUAUCGACUUUUCGGCGGAUGCGUCCAAA [G38C G41U A53C C68G], the “self-cleavage kobs at 2500 uM GlcN6P” value was under 1e-05 s⁻¹.

With AUAAAAGCGCCAGAACUACAGAAAUGUAGUUGAACAGGGGGAGUUUUAUCGAAUUUUCGGCGGAUGACUCGAAA [C34A G35C A39G G44U C67A C71G], the “self-cleavage kobs at 2500 uM GlcN6P” value was under 1e-05 s⁻¹.

In the case of AUAAAAGCCCCAGAACUACAGAAAUGUAGUUGACGAGGUGGAGGCUUAUCGAAUUUUUGGCGGAUGCCUCCAAA [G9C A39U U45C C58U], the “self-cleavage kobs at 2500 uM GlcN6P” value was under 1e-05 s⁻¹.

In the case of AUAAAAGCGCCAGAACUACAGAAAUGUAGUUGUCGAGGAGGAGGUUUAUCUAAUUUUCGGCGGAUGUCUCCAAA [A33U G51U C67U], the “self-cleavage kobs at 2500 uM GlcN6P” value is under 1e-05 s⁻¹.

Take AUAAAAGCGCCAGGACUACAGAAAUGUAGAUGACGAGGAGGAGGUUUAUAGAAUUUUCGGCGGAUGCCUCCAAA [A14G U30A C50A]: the “self-cleavage kobs at 2500 uM GlcN6P” value was found to be 8.06e-05 ± 2.8e-05 s⁻¹.

Take AUAAAAGCGCCAGAACUACAGAAAUGUAGUUGCAGAGGAGGAGGUUUAUCGAAUUUUCGGCUGAUGCCUCUAAA [A33C C34A G62U C71U]: the “self-cleavage kobs at 2500 uM GlcN6P” value was under 1e-05 s⁻¹.

For the variant AUAAAAGCGCCAGAACUACAGAAAUGUAGCUGACGAGGAGGAGGUUUAUCGAAUCGUCGGCGGAUGCCCCCAAA [U30C U55C U56G U69C], the “self-cleavage kobs at 2500 uM GlcN6P” value was under 1e-05 s⁻¹.

Regarding AUAAAAGCGCCAGAACUACAGAAAUGUAGUUGACGCGGUCGGGGUCUAUCGAAUUUUCGGCGGAUGCCGCCAAA [A36C A39U G40C A42G U46C U69G], the “self-cleavage kobs at 2500 uM GlcN6P” value was under 1e-05 s⁻¹.

With AUAAAAGCGCCAGAACUACAGAAAUGUAGUUGACGAGGAAGAGGUUCAUCGAACUUUCGGCGGAUGCCUCCAAA [G40A U47C U54C], the “self-cleavage kobs at 2500 uM GlcN6P” value amounted to 0.00058 ± 0.00013 s⁻¹.

Regarding AUAAAAGCGCUAGAUCUACAGAAAUGUAGUUGACGAGGAGCAGGUUUAUCGAAUUUUCGGCGGAUGCCUCCAAA [C11U A15U G41C], the “self-cleavage kobs at 2500 uM GlcN6P” value was under 1e-05 s⁻¹.

Consider AUAAAGGCGCCAGAAUUACAGAAAUGUACUUGACGAGGAGGAGGUUUAUCGAAUUUUCGGCGGAUGCCUCCAAA [A6G C16U G29C], for which the “self-cleavage kobs at 2500 uM GlcN6P” value came out at 6.69e-05 ± 2e-05 s⁻¹.

AUAAAAGCGCCAGAACUACAGAAAUGUAGUUGACGAGGAAGAGGUUCAUCGAAUUUUUGGCGGAUGCCUCCAAA [G40A U47C C58U]: the “self-cleavage kobs at 2500 uM GlcN6P” value was under 1e-05 s⁻¹.

Regarding AUAAAAGCGCCAGAACUACAGAAAUGUAGUUAACGAGGUGGAGGUUUAUCGAAUUAUCGGCGGAUGCCUCCAAA [G32A A39U U56A], the “self-cleavage kobs at 2500 uM GlcN6P” value came to 5.98e-05 ± 1.5e-05 s⁻¹.

As to AUAAAAGCGCCAGAAAUACAGAAAUGUAGUUGUCGAGGAGGAGGUUUAUCGUAUUUUCGGCGGAUGCCUCCAAA [C16A A33U A52U], the “self-cleavage kobs at 2500 uM GlcN6P” value was under 1e-05 s⁻¹.

For the variant AUAAAAGCACCAGAACUACAGAAAUGUACUUGACAAGGAGGAGUUAUAUCGAAUUUUCGGCGGCUGCCUCCAAA [G9A G29C G35A G44U U46A A64C], the “self-cleavage kobs at 2500 uM GlcN6P” value was under 1e-05 s⁻¹.

Turning to AUAAAAGCGCUAGAACUACAGAAAUGUAGUUGACGAGGAAGAGGUAUAUCGAAUUUUCCGCGGAUGCCUCCAAA [C11U G40A U46A G59C], the “self-cleavage kobs at 2500 uM GlcN6P” value is under 1e-05 s⁻¹.

On to AUAAAAGCGCCUGGACUACAGAAAUGUAGUUUACGAGGAGGAGGUUUAUCGAAUUUUCGGCGGAUGCCUCCAAA [A12U A14G G32U], for which the “self-cleavage kobs at 2500 uM GlcN6P” value came out at 0.000861 ± 0.00015 s⁻¹.

Consider AUAAAAGCGCCAGUACUACAGAAAUGUAGUUGACGAGGAGGAGGGUUAUCGACUUUUCGGCGGACGCCUCCAAA [A14U U45G A53C U65C], for which the “self-cleavage kobs at 2500 uM GlcN6P” value is under 1e-05 s⁻¹.

On to AUAAAAGCGCCAGAACUACAGAAAUGUAGUUGACGAGGAGGAGGUUUAUCGAAUUUUUGGGGGAUUCCUCCAAA [C58U C61G G66U], for which the “self-cleavage kobs at 2500 uM GlcN6P” value was 6.41e-05 ± 2.3e-05 s⁻¹.

Consider AUAAAAGCGCCAGAACUACAGAAAUGUAGUUGACGAGGAGGAGAUUUAUCGUAUUUUCGUCGGAUGCCUCCAAA [G44A A52U G60U], for which the “self-cleavage kobs at 2500 uM GlcN6P” value was under 1e-05 s⁻¹.

For the variant AUAAAAGAGCCAGAACUACAGAAAUGUAGUUUACGAGGAGGAGGUUUAUCGAAUUUUCAGCGGAUGCCUCCAAA [C8A G32U G59A], the “self-cleavage kobs at 2500 uM GlcN6P” value is under 1e-05 s⁻¹.

As to AUAAAAGCGCCAGAACUACAGAAAUGUAGUUGACGAGGAGGGGGUUUAUCGAAUUUUCGGCGGACGCCUCCAAA [A42G U65C], the “self-cleavage kobs at 2500 uM GlcN6P” value came to 0.000535 ± 0.00016 s⁻¹.

Regarding AUAAAAGCACCAUAACUACAGAAAUGUAGUUGACGAGGAGGAGGUUUAUCGAAUUUCCGGCGGAUGCCUCCAAA [G9A G13U U57C], the “self-cleavage kobs at 2500 uM GlcN6P” value was under 1e-05 s⁻¹.

On to AUAAAAGCGCCAGAACUACAGAAAUGUAGUUGACGAGGAGGAGGGUUUUCGAAUCUUCGGCGGAUGCCUCCAAA [U45G A48U U55C], for which the “self-cleavage kobs at 2500 uM GlcN6P” value was determined as 8.04e-05 ± 2.8e-05 s⁻¹.

In the case of AUAAAAGCGCCAGAACUACAGAAAUGUACUUGAUAAGGAUGAGGUUUAUCGAAUUUUCCGCGGAUGCCUCCAAA [G29C C34U G35A G40U G59C], the “self-cleavage kobs at 2500 uM GlcN6P” value was under 1e-05 s⁻¹.

As to AUAAAAGCGUCAUAACUACAGAAAUGUAGUUGACGAGGAGGAGGUUUAUCGUAUUUUCGGCGGAUGCCUCCAAA [C10U G13U A52U], the “self-cleavage kobs at 2500 uM GlcN6P” value was under 1e-05 s⁻¹.

On to AUAAAAGCGCCAGACCUACAGAAAUGUAGACGACGAGGAGGAGGUUUUUCGAAUUUUCGGCGGAUGCCUCCAAA [A15C U30A U31C A48U], for which the “self-cleavage kobs at 2500 uM GlcN6P” value is 7.36e-05 ± 3e-05 s⁻¹.

As to AUAAAAGCGCCAGAACUACAGAAAUGUAGUUGCCGACGAGGAGGUUUAUCGAAUCUUCGGCGGAUGCCUCCAAA [A33C G37C U55C], the “self-cleavage kobs at 2500 uM GlcN6P” value was under 1e-05 s⁻¹.

For AUAAAAGCGCCCGAACUACAGAAAUGUAGUUGACGAGGAGGAGGUUUGUCGAAUUUUGGGCGGAUGCCUCCAAA [A12C A48G C58G], the “self-cleavage kobs at 2500 uM GlcN6P” value turned out to be 4.08e-05 ± 1.8e-05 s⁻¹.

Regarding AUAAAAGCGCCGGAACUACAGAAAUGUAGUUGACGAGGAUGAGGUUUAUCGAAUUUUCGGCGGAUGUCUCCAAA [A12G G40U C67U], the “self-cleavage kobs at 2500 uM GlcN6P” value is under 1e-05 s⁻¹.

Variants of B1 are the subject of a further data set. As to the kind of experiment: self-cleavage kobs at 10000 uM GlcN6P; higher = faster cleavage; RNA array. The note with it: with glucosamine-6-phosphate. In outline: as §1
With AUAAAGGCGCCAGAAUUACAGAAAUGUACUUGACGAGGAGGAGGUUUAUCGAAUUUUCGGCGGAUGCCUCCAAA [A6G C16U G29C], the “self-cleavage kobs at 10000 uM GlcN6P” value was 6.83e-05 ± 1.6e-05 s⁻¹.

Turning to AUAAAAGCGCCUGGACUACAGAAAUGUAGUUUACGAGGAGGAGGUUUAUCGAAUUUUCGGCGGAUGCCUCCAAA [A12U A14G G32U], the “self-cleavage kobs at 10000 uM GlcN6P” value worked out at 0.00275 ± 0.00043 s⁻¹.

As for AUAAAAGCACCAUAACUACAGAAAUGUAGUUGACGAGGAGGAGGUUUAUCGAAUUUCCGGCGGAUGCCUCCAAA [G9A G13U U57C], the “self-cleavage kobs at 10000 uM GlcN6P” value was under 1e-05 s⁻¹.

In the case of AUAAAAGCGCCAGAACUACAGAAAUGUACUUGAUAAGGAUGAGGUUUAUCGAAUUUUCCGCGGAUGCCUCCAAA [G29C C34U G35A G40U G59C], the “self-cleavage kobs at 10000 uM GlcN6P” value is under 1e-05 s⁻¹.
